Assay [1] addresses T1, Human FGFR2 IIIb D1-3 (human).
T1 construct: Extracellular domains D1-3 with C-terminal tag, made in HEK293T; also called recombinant human FGFR2 IIIb; hFGFR2
T1 chain: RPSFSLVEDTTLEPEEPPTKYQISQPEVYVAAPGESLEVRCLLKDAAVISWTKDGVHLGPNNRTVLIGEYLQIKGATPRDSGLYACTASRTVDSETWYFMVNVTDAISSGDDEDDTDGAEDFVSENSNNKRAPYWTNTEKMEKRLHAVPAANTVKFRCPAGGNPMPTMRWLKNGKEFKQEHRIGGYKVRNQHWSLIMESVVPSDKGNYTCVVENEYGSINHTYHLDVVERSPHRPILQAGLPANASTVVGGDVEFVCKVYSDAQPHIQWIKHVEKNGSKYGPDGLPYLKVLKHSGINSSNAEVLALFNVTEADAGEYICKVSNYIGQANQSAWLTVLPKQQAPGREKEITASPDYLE
The assay is described as follows: SPR Biacore, method as Example 2. The method, then: (§1) For kinetic measurements, experiments were performed in which the antibodies were immobilized to the sensor chip surface and the ability of the FGFR proteins described above listed in Table 1 to bind in free solution was determined Briefly, 50 μg/ml of anti-human Fc antibody at pH 4.75 was immobilized on a CM5 sensor chip through amine coupling at flow rate of 10 μl/minute on all four flow cells to reach 6000 RUs. […] Subsequently, 0.078-100 nM of FGFR receptors, diluted in a 2-fold series, were injected at a flow rate of 80 μl/min for 7 min over both reference and test flow cells. Dissociation of the binding was followed for 10 min using HBS-EP⁺ supplemented with 0.5 mg/ml of BSA and 10 μg/ml heparin as running buffer. After each injection cycle, the chip surface was regenerated with 10 mM glycine, pH 2.0 at 60 μl/min for 70 s.

Assay [2] addresses T2, Mouse FGFR2 IIIb D1-3 (mouse).
T2 chain: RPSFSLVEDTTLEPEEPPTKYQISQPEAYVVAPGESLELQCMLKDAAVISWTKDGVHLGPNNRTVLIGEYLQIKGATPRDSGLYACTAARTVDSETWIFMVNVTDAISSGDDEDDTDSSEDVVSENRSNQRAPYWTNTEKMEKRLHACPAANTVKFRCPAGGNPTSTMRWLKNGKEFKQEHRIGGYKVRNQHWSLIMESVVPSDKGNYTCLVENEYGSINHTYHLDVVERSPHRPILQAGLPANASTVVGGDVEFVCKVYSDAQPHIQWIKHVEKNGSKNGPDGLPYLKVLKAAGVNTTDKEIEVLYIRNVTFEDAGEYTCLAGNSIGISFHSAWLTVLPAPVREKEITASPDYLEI
The assay is described as follows: SPR Biacore, IgG captured via anti-human Fc, soluble FGFR as analyte. As to the method:
(§2) Affinity of the antibodies to FGFR2 species orthologues was determined using Biacore technology using a Biacore T100 instrument (GE Systems) and with CM5 sensor chips.
as §1

Assay [3] addresses T3, Rat FGFR2 IIIb D1-3 (rat).
T3 chain: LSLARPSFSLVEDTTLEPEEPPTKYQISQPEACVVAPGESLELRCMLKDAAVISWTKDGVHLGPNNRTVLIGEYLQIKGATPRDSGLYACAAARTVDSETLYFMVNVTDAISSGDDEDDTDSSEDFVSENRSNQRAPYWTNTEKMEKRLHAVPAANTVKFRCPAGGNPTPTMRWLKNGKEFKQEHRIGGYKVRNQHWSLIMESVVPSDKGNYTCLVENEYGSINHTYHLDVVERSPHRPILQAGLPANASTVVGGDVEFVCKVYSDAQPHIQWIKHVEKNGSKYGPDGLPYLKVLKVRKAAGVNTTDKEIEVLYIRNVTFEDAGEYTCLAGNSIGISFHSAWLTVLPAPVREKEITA
Described as above. The method, then: as §2, §1

Assay [4] addresses T1, Human FGFR2 IIIb D1-3. Described as above. The method, then: as §2, §1
Assay [5] concerns the target T4, Cynomolgus monkey FGFR2 IIIb D1-3 (cynomolgus monkey).
T4 construct: also called Cyno FGFR2 IIIb
T4 chain: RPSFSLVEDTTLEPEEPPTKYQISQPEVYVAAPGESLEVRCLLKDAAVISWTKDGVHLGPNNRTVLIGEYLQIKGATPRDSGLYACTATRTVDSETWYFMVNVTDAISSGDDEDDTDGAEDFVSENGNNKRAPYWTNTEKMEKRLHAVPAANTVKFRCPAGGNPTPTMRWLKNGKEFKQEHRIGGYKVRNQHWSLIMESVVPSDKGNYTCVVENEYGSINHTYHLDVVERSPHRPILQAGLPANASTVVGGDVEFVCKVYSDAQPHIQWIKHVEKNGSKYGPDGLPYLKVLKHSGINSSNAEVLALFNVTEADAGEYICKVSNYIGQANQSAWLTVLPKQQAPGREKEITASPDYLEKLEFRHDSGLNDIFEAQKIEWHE
The description is as above. As to the method:
as §2, §1

Assay [6] concerns the target T5, Human FGFR4 ECD (human, UniProt P22455 22-369).
T5 construct: Extracellular domain with C-terminal tag
The assay is described as follows: screening of panning outputs for specificity and cross-reactivity (assays of Example 1).

For assay [7], the target named is T1, Human FGFR2 IIIb D1-3. The assay can be described thus: SPR Biacore, method as Example 2. The method, then: as §1
Assay [8] deals with T4, Cynomolgus monkey FGFR2 IIIb D1-3. The assay is described as follows: SPR Biacore, method as Example 2. As to the method: as §1
In assay [9] the target is T6, FGFR2 D2-D3 Construct (human).
T6 construct: E. coli made, not glycosylated; also called E. Coli. derived FGFR2D2-D3 protein
T6 chain: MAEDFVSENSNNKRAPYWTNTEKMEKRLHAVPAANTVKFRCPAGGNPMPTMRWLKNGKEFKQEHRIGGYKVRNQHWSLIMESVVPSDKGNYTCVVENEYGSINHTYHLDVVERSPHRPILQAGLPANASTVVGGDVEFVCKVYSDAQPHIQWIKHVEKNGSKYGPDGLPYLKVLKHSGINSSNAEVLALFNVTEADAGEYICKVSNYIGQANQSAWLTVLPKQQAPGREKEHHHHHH
The assay is described as follows: HDx-MS, antigen incubated 30 min with antibody. As to the method:
The epitope mapping experiments described in this example were performed on a Waters HDx-MS platform, which includes a LEAP autosampler, nanoACQUITY UPLC System, and Synapt G2 mass spectrometer. The studies were automated by a LEAP autosampler operated by the LeapShell software, which performed initiation of the deuterium exchange reaction, reaction time control, quench reaction, injection onto the UPLC system and digestion time control. The Leap autosampler was equipped with two temperature controlled stacks maintained at 25° C. for HDx reaction and maintained at 2° C. for storage of protein and quench solution, respectively. Triplicate control experiments were carried out on antigen at a deuterium exchange time of 25 minutes. HDX was quenched with quenching buffer (6 M urea and 1 M TCEP pH=2.5). […] Triplicate experiments were carried out on antigen-mAb complex just as the control experiments except in these experiments the antigen in incubated for 30 min with the antibody at 25° C. prior to deuterium exchange.

In assay [10] the target is T7, complement factor Clq (UniProt P02745 23-245; P02746 28-253; P02747 29-245).
T7 construct: bought (Sigma C1740); also called C1q; Complement component Clq (Sigma C1740)
T7 sequence (P02745 23-245 limits assumed, chain 1 of 3): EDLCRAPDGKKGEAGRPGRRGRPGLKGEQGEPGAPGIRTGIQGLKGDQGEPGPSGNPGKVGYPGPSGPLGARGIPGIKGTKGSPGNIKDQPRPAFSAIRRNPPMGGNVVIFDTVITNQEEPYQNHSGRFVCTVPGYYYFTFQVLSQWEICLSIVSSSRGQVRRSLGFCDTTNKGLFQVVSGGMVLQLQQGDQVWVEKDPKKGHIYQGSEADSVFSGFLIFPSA
T7 sequence (P02746 28-253 limits assumed, chain 2 of 3): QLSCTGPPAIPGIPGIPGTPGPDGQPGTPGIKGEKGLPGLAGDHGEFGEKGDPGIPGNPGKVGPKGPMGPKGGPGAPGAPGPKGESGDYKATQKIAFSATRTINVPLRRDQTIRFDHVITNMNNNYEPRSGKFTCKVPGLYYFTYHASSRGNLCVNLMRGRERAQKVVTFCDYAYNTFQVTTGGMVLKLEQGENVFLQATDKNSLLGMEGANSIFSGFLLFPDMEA
T7 sequence (P02747 29-245 limits assumed, chain 3 of 3): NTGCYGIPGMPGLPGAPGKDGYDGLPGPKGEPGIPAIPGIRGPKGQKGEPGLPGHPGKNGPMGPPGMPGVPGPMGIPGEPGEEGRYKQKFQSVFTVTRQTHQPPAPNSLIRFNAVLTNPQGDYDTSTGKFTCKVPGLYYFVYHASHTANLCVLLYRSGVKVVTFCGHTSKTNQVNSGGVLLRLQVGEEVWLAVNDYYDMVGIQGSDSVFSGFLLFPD
The assay can be described thus: ELISA, antibody coated in serial dilution, constant C1q; inferred from about 50% coating.
Description: In additional studies, the ability of the unconjugated anti-FGFR2 antibodies to bind the complement factor Clq was evaluated. […] In order to monitor the amount of bound antibody analyte on the microtiterplate, this procedure was performed twice per plate utilizing the second dilution (in triplicate) for determining the coating efficacy of the analyte to the plate.

Assay [11] concerns the target T1, Human FGFR2 IIIb D1-3. The assay is described as follows: SPR Biacore, method as Example 2.
The target of assay [12] is T1, Human FGFR2 IIIb D1-3. The assay can be described thus: SPR Biacore, similar assay conditions.
Assay [13] concerns the target T1, Human FGFR2 IIIb D1-3. The assay is described as follows: SET or Biacore, IgG.

Here are results for eight molecules from US20140308201A1 (Novartis, published 2014).

B1: mAb12422 (antibody, human IgG1, kappa, V domains shown)
VH: QVQLVQSGAEVKKPGSSVKVSCKASGGTFSSYAISWVRQAPGQGLEWMGYISPYMGETHYAQKFQGRVTITADESTSTAYMELSSLRSEDTAVYYCARESYEYFDIWGQGTLVTVSS
VL: DIQMTQSPSSLSASVGDRVTITCRASQSISNDLAWYQQKPGKAPKLLIYATSILQSGVPSRFSGSGSGTDFTLTISSLQPEDFATYYCLQYYDYSYTFGQGTKVEIKR
notes: HuCAL human IgG1
On to B1, for which the Kd in [1] worked out at 5.1 nM; in [2] it was 7.7 nM; in [3] it was 9.7 nM; in assay [4], 5.1 nM; in assay [5], 7.4 nM. Further, the binding result in assay [6] is “binds”.

B2: mAb11725 (antibody, human IgG1, lambda, V domains shown)
VH: QVQLLESGGGLVQPGGSLRLSCAASGFTFNTYWLHWVRQAPGKGLEWVSVISSDSSSTYYADSVKGRFTISRDNSKNTLYLQMNSLRAEDTAVYYCARDSRLDYWGQGTLVTVSS
VL: DIELTQPPSVSVSPGQTASITCSGDSIGDTYVDWYQQKPGQAPVLVIYDDIDRPSGIPERFSGSNSGNTATLTISGTQAEDEADYYCYVYAWTGTSNVFGGGTKLTVLG
notes: HuCAL human IgG1
B2: the Kd in assay [1] was 3.3 nM; in [2], 130 nM; in assay [3], 140 nM; in assay [4] it was 26 nM; in [5], 7.3 nM.

B3: mAb10164 (antibody, human IgG1, lambda, V domains shown)
VH: QVQLVESGGGLVKPGGSLRLSCAASGFTFSSYALSWVRQAPGKGLEWVGRIRSKIDGGTTDYAAPVKGRFTISRDDSKNTLYLQMNSLKTEDTAVYYCARDRSPSDSSAFAIWGQGTLVTVSS
VL: DIELTQPPSVSVSPGQTASITCSGDNLGSQYVDWYQQKPGQAPVLVIYDDNDRPSGIPERFSGSNSGNTATLTISGTQAEDEADYYCQSWDSLSVVFGGGTKLTVLG
notes: HuCAL human IgG1
B3: the Kd in assay [1] worked out at 2 nM; in assay [7], 2 nM; in assay [8], 9 nM; in [4], 19 nM; in assay [5], 16 nM. The binding result in [9] is on record as “binds”. Further, the “C1q binding capacity against the other antibodies” value in assay [10] was approximately 2 fold.

B4: mAb20437 (antibody, human IgG1, lambda, V domains shown)
VH: EVQLVESGGGLVKPGGSLRLSCAASGFTFSSYALSWVRQAPGKGLEWVGRIRSRIEGGTTDYAAPVRGRFTISRDDSKNTLYLQMNSLKTEDTAVYYCARDRSPSDSSAFAIWGQGTLVTVSS
VL: SYELTQPLSVSVALGQTARITCSGDNLGSQYVDWYQQKPGQAPVLVIYDDNDRPSGIPERFSGSNSGNTATLTISRAQAGDEADYYCQSWDSLSVVFGGGTKLTVLG
notes: human IgG1
Regarding B4, in assay [11], the Kd amounted to 3.1 nM.

B5: mAb20562 (antibody, human IgG1, kappa, V domains shown)
VH: EVQLLESGGGLVQPGGSLRLSCAASGFTFSDYAMSWVRQAPGKGLEWVSVIEGDASYTHYADSVRGRFTISRDNSKNTLYLQMNSLRAEDTAVYYCARERTYSSAFDYWGQGTLVTVSS
VL: DIQMTQSPSSLSASVGDRVTITCRASQDISSDLNWYQQKPGKAPKLLIYDASNLQSGVPSRFSGSGSGTDFTLTISSLQPEDFATYYCQQHYSPSHTFGQGTKVEIKR
notes: human IgG1
Consider B5, for which the Kd in [12] was determined as 9 nM.

B6: mAb12947 (antibody, human IgG1, kappa, V domains shown)
VH: QVQLVQSGAEVKKPGSSVKVSCKASGGTFSSYAISWVRQAPGQGLEWMGSIQPTAGPARYAQKFQGRVTITADESTSTAYMELSSLRSEDTAVYYCARASLYSVATGSYWKVYHPFDSWGQGTLVTVSS
VL: DIQMTQSPSSLSASVGDRVTITCRASQDIYSYLAWYQQKPGKAPKLLIYDASSLQSGVPSRFSGSGSGTDFTLTISSLQPEDFATYYCQQADQYPVTFGQGTKVEIKR
notes: HuCAL human IgG1
Take B6: the Kd in [1] is 2.7 nM; in assay [2], 3.1 nM; in assay [3], 5.1 nM; in [4] it was 2.7 nM; in assay [5], 2.4 nM.

B7: mAb12439 (antibody, human IgG1, kappa, V domains shown)
VH: QVQLVQSGAEVKKPGASVKVSCKASGYTFTSYDISWVRQAPGQGLEWMGWINPYNGGTNYAQKFQGRVTMTRDTSISTAYMELSRLRSEDTAVYYCAREGSGMIVYPGWSYAFDYWGQGTLVTVSS
VL: DIQMTQSPSSLSASVGDRVTITCRASQDISNDLGWYQQKPGKAPKLLIYAASSLQSGVPSRFSGSGSGTDFTLTISSLQPEDFATYYCQQHYHTPNTFGQGTKVEIKR
notes: HuCAL human IgG1
On to B7, for which the Kd in assay [1] worked out at 15 nM; in assay [2], 15 nM; in assay [3], 16 nM; in assay [4] it was 15 nM; in [5] it was 5.6 nM. In addition, the binding result in assay [6] is reported as “binds”.

B8: mAb20811 (antibody, human IgG1, kappa, V domains shown)
VH: QVQLLESGGGLVQPGGSLRLSCAASGFTFSDYAMSWVRQAPGKGLEWVSTIEGDSNYIEYADSVKGRFTISRDNSKNTLYLQMNSLRAEDTAVYYCARERTYSSAFDYWGQGTLVTVSS
VL: DIQMTQSPSSLSASVGDRVTITCRASQDISSDLNWYQQKPGKAPKLLIYDASNLQSGVPSRFSGSGSGTDFTLTISSLQPEDFATYYCHQWYSTLYTFGQGTKVEIKR
notes: IgG
B8 returned a Kd in assay [13] of 0.11 nM.
